Here are results for 1 molecule from PMC6791870, “Switch of the interactions between the ribosomal stalk and EF1A in the GTP- and GDP-bound conformations” (Scientific Reports, 2019).

For orientation: Kd means the constant that tells how readily two partners part at equilibrium. Low readings indicate higher affinity, high ones lower affinity.

Experiment in all cases: fluorescence polarisation; FITC-labeled PhoP1C14 peptide (50 nM) mixed with 0-160 µM of the complex of each PhoEF1A mutant, GTP and PfuPelota; 20 mM HEPES-KOH pH 7.6, 10 mM MgCl2, 150 mM KCl, 0.1 mg/ml BSA; 25 °C; nonlinear regression, one site specific binding (GraphPad Prism 6); average of three replicates
Details in all cases: both partners purified
(In general: In fluorescence polarisation assays a small probe gives low polarisation when free and higher when bound to something large.)

Assay [1] deals with T1, PhoEF1A R132A•GTP•PfuPelota complex (Pyrococcus horikoshii | Pyrococcus …, UniProt O59153 1-428, R132A).
T1 construct: elongation factor aEF1A of Pyrococcus horikoshii (PhoEF1A); complex of the EF1A mutant, GTP and PfuPelota; also called R132(R140)A; P. horikoshii aEF1A-R132A
T1 sequence 1: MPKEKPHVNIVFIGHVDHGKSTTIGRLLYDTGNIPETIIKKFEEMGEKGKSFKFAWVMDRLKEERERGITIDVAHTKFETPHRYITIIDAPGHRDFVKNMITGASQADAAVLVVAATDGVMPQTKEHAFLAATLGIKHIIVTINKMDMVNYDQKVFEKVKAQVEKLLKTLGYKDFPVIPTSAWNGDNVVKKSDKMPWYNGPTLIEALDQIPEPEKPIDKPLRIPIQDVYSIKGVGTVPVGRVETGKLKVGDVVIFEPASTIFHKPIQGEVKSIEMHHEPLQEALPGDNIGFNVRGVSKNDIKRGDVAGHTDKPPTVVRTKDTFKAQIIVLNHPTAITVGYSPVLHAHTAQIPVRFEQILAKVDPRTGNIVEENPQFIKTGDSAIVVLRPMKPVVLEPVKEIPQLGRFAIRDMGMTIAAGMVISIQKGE
T1 sequence 2: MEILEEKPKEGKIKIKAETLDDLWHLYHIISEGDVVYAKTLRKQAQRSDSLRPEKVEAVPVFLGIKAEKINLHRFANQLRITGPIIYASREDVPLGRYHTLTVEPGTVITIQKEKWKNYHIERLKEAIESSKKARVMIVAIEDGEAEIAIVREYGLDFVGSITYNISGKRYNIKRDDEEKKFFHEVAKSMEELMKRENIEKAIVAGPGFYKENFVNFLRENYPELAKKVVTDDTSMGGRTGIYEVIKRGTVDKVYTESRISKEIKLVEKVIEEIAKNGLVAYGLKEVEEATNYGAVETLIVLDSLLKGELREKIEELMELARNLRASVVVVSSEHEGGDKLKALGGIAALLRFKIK

The target of assay [2] is T2, PhoEF1A R406A•GTP•PfuPelota complex (Pyrococcus horikoshii | Pyrococcus …, UniProt O59153 1-428, R406A).
T2 construct: elongation factor aEF1A of Pyrococcus horikoshii (PhoEF1A); complex of the EF1A mutant, GTP and PfuPelota; also called R406(R409)A; P. horikoshii aEF1A-R406A
T2 sequence 1: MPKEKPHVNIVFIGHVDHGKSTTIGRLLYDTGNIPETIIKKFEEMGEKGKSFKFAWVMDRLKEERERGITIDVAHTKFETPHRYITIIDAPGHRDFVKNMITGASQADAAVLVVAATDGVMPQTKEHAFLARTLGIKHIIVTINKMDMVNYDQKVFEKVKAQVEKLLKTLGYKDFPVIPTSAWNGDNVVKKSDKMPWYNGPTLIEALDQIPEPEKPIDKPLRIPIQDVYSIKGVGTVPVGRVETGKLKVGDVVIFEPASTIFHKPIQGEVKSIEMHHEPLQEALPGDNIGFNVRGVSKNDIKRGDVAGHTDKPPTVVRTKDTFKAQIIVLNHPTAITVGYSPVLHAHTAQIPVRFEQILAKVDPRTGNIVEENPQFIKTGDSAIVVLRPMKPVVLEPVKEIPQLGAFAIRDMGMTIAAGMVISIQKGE
T2 sequence 2: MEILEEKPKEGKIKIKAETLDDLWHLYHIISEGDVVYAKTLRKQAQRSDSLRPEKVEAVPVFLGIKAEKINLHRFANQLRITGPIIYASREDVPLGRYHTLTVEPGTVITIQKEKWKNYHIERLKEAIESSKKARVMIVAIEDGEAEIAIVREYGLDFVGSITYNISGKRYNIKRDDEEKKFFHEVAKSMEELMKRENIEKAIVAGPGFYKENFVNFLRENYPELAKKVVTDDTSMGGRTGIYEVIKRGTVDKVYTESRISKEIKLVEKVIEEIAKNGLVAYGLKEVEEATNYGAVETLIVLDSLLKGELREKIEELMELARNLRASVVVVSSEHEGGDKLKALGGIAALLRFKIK

For assay [3], the target named is T3, PhoEF1A I328S•GTP•PfuPelota complex (Pyrococcus horikoshii | Pyrococcus …, UniProt O59153 1-428, I328S).
T3 construct: elongation factor aEF1A of Pyrococcus horikoshii (PhoEF1A); complex of the EF1A mutant, GTP and PfuPelota; also called I328(F331)S; P. horikoshii aEF1A-I328S
T3 sequence 1: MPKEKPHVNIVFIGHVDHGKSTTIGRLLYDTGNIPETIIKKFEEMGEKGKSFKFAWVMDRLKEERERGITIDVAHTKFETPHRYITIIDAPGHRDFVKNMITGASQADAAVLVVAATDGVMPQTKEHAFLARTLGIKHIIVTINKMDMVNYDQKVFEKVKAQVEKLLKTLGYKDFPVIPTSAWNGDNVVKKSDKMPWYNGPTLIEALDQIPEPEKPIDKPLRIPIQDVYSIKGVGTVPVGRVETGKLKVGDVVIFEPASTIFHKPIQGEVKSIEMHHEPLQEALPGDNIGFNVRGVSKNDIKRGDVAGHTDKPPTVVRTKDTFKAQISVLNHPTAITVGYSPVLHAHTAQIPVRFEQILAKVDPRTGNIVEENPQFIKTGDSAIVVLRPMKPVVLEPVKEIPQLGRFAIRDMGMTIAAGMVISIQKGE
T3 sequence 2: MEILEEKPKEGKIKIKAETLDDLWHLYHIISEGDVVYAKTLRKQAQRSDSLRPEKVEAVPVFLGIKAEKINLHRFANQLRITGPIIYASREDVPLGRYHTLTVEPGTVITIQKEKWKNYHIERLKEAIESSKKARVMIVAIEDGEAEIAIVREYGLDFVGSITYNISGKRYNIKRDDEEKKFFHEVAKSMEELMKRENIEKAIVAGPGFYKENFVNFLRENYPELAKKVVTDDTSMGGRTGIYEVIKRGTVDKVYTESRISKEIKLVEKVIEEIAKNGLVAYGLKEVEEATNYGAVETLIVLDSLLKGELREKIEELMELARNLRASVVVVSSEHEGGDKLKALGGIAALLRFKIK

Primed or numbered codes have the meaning given here. Where no end group is shown, it is not given here. FITC′ = fluorescein isothiocyanate label

B1: FITC-labeled C-terminal 14-mer peptide of P. horikoshii aP1 (PhoP1C14) (peptide)
peptide: {FITC′}-SEEEALAGLSALFG
notes: also called FITC-labeled peptide of PhoP1C14; source: synthetic peptide (Hokkaido System Science Co., Ltd)
For B1, the dissociation constant (Kd) in assay [1] turned out to be 87.8 ± 12 µM; in assay [2], 33 ± 2.1 µM; in assay [3] it was 93.3 ± 10.2 µM.
